Results taken from doi:10.1101/262477 (bioRxiv, 2018).
Read-outs that look alike come from different tables or passages of the source.

Experiments:
[1] = biological target: T1, NFS1-ISD11 complex (SD), purified, His tag removed (human, UniProt Q9Y697 56-457; Q9HD34 1-91); test: BLI
[2] = biological target: T1, NFS1-ISD11 complex (SD), purified, His …; test: BLI; remark: listed apart in the source

T1 sequence (Q9Y697 56-457, chain 1 of 2): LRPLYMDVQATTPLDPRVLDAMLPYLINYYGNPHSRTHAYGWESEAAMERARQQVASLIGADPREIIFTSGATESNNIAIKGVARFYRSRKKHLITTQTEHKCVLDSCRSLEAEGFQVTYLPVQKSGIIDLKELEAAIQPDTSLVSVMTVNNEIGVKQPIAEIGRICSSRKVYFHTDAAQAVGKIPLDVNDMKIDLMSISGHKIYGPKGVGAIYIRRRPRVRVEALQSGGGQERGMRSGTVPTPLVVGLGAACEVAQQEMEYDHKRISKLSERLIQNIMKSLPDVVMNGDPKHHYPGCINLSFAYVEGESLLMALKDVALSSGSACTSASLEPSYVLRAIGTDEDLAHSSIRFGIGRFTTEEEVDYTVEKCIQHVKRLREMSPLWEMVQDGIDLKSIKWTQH
T1 sequence (Q9HD34 whole entry, chain 2 of 2): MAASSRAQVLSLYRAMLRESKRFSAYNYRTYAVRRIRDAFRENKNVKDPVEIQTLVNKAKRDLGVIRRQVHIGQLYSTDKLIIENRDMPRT

Kd [1]: 0.16 ± 0.026 µM | Kd [2]: 0.0878 ± 0.007 µM
B1: biotinylated human ISCU (Δ1-34), wild type (natural protein, UniProt Q9H1K1 35-167, looked up)
chain: YHKKVVDHYENPRNVGSLDKTSKNVGTGLVGAPACGDVMKLQIQVDEKGKIVDARFKTFGCGSAIASSSLATEWVKGKTVEEALTIKNTDIAKELCLPPVKLHCSMLAEDAIKAALADYKLKQEPKKGEAEKK
modifications: biotin (site not stated)
